Source: patent US20070065439A1

Target: type I IL-1 receptor (IL-1R) (UniProt P14778)
Test: cell-based or functional assay

Chain of type I IL-1 receptor (IL-1R) (P14778 18-569 limits assumed): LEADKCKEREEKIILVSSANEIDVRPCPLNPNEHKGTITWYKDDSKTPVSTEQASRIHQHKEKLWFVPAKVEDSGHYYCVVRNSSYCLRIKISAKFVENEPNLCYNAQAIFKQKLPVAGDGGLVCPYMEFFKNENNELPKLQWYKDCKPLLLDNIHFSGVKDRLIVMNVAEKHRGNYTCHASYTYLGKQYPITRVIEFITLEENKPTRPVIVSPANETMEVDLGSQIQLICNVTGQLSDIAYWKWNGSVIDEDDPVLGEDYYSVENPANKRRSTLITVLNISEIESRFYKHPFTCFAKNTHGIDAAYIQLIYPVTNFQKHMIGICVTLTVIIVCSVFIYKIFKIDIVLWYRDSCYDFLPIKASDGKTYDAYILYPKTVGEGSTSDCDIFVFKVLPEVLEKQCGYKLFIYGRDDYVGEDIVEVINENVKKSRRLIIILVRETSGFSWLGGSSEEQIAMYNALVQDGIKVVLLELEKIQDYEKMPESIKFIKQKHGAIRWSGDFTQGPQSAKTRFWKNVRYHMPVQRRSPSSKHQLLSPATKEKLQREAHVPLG

**Q.** Which EC50, inhibition of IL-1β-induced IL-6 production in MRC-5 cells does the source give for “anakinra (KINERET) (from UniProt P18510 26-177) (ligand)” here?
**A.** 0.077 nM

**Q.** What about the EC50, inhibition of IL-1β-induced IL-8 production in human whole blood of the same substance?
**A.** 0.984 nM
